Legend:
Details in all cases: both partners purified
[1] = biological target: T1, extracellular domain of human RAGE (residues 1 to 344) (human, UniProt Q15109 23-344); assay: SPR; OpenSPR (Nicoya); TLR4 (residues 1 to 631) or RAGE extracellular domain (residues 1 to 344) immobilised on NTA sensor chip; pCTS-L applied as analyte at different concentrations; representative Kd
T1 construct: signal peptide in the construct; receptor for advanced glycation end products, human, extracellular domain, residues 1 to 344; also called receptor for advanced glycation end products; recombinant RAGE; source: bought: Sino Biological Inc
T1 sequence (Q15109 23-344): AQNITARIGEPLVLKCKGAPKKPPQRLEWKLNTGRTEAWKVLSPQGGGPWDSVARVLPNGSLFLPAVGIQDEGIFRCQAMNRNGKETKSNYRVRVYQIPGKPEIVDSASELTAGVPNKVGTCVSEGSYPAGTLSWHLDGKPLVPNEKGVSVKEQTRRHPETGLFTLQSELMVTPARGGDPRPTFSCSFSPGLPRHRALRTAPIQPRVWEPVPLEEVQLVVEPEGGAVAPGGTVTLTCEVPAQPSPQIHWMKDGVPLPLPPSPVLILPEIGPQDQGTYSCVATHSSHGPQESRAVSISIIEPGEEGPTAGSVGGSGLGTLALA

[2] = biological target: T2, human TLR4 (ECD-His Tag, residues 1 to 631) (human, UniProt O00206 24-631); assay: as above
T2 construct: signal peptide in the construct; Toll-like receptor 4, human, extracellular domain, residues 1 to 631; also called Toll-like receptor 4; recombinant TLR4; source: bought: Sino Biological Inc
T2 sequence (O00206 24-631): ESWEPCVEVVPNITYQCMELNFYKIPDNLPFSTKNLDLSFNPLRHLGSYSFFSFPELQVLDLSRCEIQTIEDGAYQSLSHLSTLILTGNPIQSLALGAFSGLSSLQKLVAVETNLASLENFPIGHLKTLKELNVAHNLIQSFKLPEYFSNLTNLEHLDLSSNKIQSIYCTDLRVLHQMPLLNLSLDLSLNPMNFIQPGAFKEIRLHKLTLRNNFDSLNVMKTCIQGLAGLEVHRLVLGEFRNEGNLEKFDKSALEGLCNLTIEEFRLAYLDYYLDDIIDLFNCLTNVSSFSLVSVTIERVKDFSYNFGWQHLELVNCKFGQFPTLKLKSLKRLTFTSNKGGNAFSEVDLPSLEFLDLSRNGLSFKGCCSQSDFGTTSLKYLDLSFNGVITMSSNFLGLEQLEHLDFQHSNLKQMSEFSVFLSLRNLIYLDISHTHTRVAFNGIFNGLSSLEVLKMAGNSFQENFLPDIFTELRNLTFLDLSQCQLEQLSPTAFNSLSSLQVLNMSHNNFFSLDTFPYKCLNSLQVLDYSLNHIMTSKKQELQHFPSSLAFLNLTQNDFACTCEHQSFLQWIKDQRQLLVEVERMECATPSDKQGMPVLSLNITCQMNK

[3] = biological target: T1, extracellular domain of human RAGE …; assay: SPR; OpenSPR, series of Fig. 10A; pCTS-L immobilised on NTA sensor chip; TLR4 or RAGE as analyte; reference values without mAb20 (not told whether with c-mAb preincubated or with no antibody)
[4] = biological target: T2, human TLR4 (ECD-His Tag, residues 1 to …); assay: as above
[5] = biological target: T1, extracellular domain of human RAGE …; assay: SPR; OpenSPR (Nicoya); human pCTS-L immobilised on NTA sensor chip; human TLR4 or RAGE applied as analyte at various concentrations; Kd estimated with TraceDrawer
[6] = biological target: T2, human TLR4 (ECD-His Tag, residues 1 to …); assay: as above

B1: recombinant human procathepsin L (pCTS-L) (natural protein, UniProt P07711 18-333, looked up)
chain: TLTFDHSLEAQWTKWKAMHNRLYGMNEEGWRRAVWEKNMKMIELHNQEYREGKHSFTMAMNAFGDMTSEEFRQVMNGFQNRKPRKGKVFQEPLFYEAPRSVDWREKGYVTPVKNQGQCGSCWAFSATGALEGQMFRKTGRLISLSEQNLVDCSGPQGNEGCNGGLMDYAFQYVQDNGGLDSEESYPYEATEESCKYNPKYSVANDTGFVDIPKQEKALMKAVATVGPISVAIDAGHESFLFYKEGIYFEPDCSSEDMDHGVLVVGYGFESTESDNNKYWLVKNSWGEEWGMGGYVKMAKDRRNHCGIASAASYPTV
notes: procathepsin L (pCTS-L), human, recombinant; A HEK293-made pCTS-L is named only for stimulating PBMCs; also called proCTS-L; human pCTS-L; source: recombinant, highly purified
[1]
  Kd: 3 nM
[2]
  Kd: 64.4 nM
[3]
  Kd: 3.1 ± 0.4 nM
[4]
  Kd: 20.3 ± 2.3 nM
[5]
  Kd: 3.5 nM
[6]
  Kd: 20.2 nM

From paper PMC9897667, “Identification of procathepsin L (pCTS-L)–neutralizing monoclonal antibodies to treat potentially lethal sepsis” (Science Advances, 2023)
